Experimental data: PMC5577323, “Oxidant sensor in the cGMP-binding pocket of PKGIα regulates nitroxyl-mediated kinase activity” (Scientific Reports, 2017)

Target: the molecule itself
Assay: cross-linking; interprotein disulfide formed in transfected HEK-293 cells (vehicle, NCA 100 µmol/L 30 min or AS 500 µmol/L 15 min); homogenates in non-reducing Laemmli buffer with 100 mmol/L maleimide, SDS-PAGE, western blot for PKGIα; 150 kDa band lost with 2-mercaptoethanol

B1: cGMP-dependent protein kinase I-alpha (PKGIα), human, wildtype (enzyme, UniProt Q13976 1-671, looked up)
chain: MSELEEDFAKILMLKEERIKELEKRLSEKEEEIQELKRKLHKCQSVLPVPSTHIGPRTTRAQGISAEPQTYRSFHDLRQAFRKFTKSERSKDLIKEAILDNDFMKNLELSQIQEIVDCMYPVEYGKDSCIIKEGDVGSLVYVMEDGKVEVTKEGVKLCTMGPGKVFGELAILYNCTRTATVKTLVNVKLWAIDRQCFQTIMMRTGLIKHTEYMEFLKSVPTFQSLPEEILSKLADVLEETHYENGEYIIRQGARGDTFFIISKGTVNVTREDSPSEDPVFLRTLGKGDWFGEKALQGEDVRTANVIAAEAVTCLVIDRDSFKHLIGGLDDVSNKAYEDAEAKAKYEAEAAFFANLKLSDFNIIDTLGVGGFGRVELVQLKSEESKTFAMKILKKRHIVDTRQQEHIRSEKQIMQGAHSDFIVRLYRTFKDSKYLYMLMEACLGGELWTILRDRGSFEDSTTRFYTACVVEAFAYLHSKGIIYRDLKPENLILDHRGYAKLVDFGFAKKIGFGKKTWTFCGTPEYVAPEIILNKGHDISADYWSLGILMYELLTGSPPFSGPDPMKTYNIILRGIDMIEFPKKIAKNAANLIKKLCRDNPSERLGNLKNGVKDIQKHKWFEGFNWEGLRKGTLTPPIIPSVASPTDTSNFDSFPEDNDEPPPDDNSGWDIDF
modifications: interprotein disulfide at Cys42 (between the two subunits); intradisulfide Cys117-Cys195 after HNO donors
notes: written here as one chain because the row is of the protein with itself; also called WT PKGIα; PKGIα WT; source: HEK-293, transfected (pcDNA3), in cell homogenate
- stoichiometry N: 2
